This is an account of results in patent US10058586B2, “Use of human small leucine zipper protein in adipocyte differentiation procedure” (Korea University Research and Business Foundation, priority 2013, dated 2018).

In experiment [1] the test system is primary preadipocytes and mouse embryonic fibroblasts (MEFs). Briefly: Adipocyte differentiation of primary preadipocytes and MEFs isolated from sLZIP TG mice. Format: cell-based. Conditions: cells isolated from sLZIP TG mice vs wild type mice. The text has this: (§1) In order to generate human sLZIP transgenic (TG) mice, sLZIP genes were cloned into a pCMV-flag expression vector. The sLZIP TG mice were generated by Macrogen, Inc (Seoul, Korea). Transgenic founders were mated with wild type C57BL/6 mice to produce F1 heterozygotes. F1-F4 generations were genetically screened for transgenes at an age of 2 weeks old. The following two primers were used to amplify genomic DNA in order to identify wild type and TG mice: [NT] and 5'-[NT]3.' Adipocyte differentiation is a well-regulated procedure. PPARγ2 is a major regulator of adipogenesis, is highly expressed during adipocyte differentiation, and regulates expression of genes involved in adipogenesis. An effect of sLZIP on adipogenesis in vivo was examined. For this purpose, in order to produce human sLZIP transgenic mice, sLZIP genes were cloned in a pCMV-flag expression vector. The sLZIP TG mice were produced in Macrogen, Inc (Seoul, Korea) (FIG. 8A). Preadipocytes were isolated from epididymal adipose tissues of sLZIP TG mice. […] A promoter activity was measured according to luciferase analysis (FIG. 8B). […] Total RNA was extracted from the cells, and an mRNA expression level of mouse LZIPs was measured using RT-PCR analysis. […] Total RNA was isolated from the cells, and an mRNA expression level of mouse LZIPs was measured using RT-PCR (FIG. 9C) and real-time PCR (FIG. 9D).

The next experiment deals with T1, PPARγ2 (Homo sapiens, UniProt P37231).
T1 sequence (P37231 1-505): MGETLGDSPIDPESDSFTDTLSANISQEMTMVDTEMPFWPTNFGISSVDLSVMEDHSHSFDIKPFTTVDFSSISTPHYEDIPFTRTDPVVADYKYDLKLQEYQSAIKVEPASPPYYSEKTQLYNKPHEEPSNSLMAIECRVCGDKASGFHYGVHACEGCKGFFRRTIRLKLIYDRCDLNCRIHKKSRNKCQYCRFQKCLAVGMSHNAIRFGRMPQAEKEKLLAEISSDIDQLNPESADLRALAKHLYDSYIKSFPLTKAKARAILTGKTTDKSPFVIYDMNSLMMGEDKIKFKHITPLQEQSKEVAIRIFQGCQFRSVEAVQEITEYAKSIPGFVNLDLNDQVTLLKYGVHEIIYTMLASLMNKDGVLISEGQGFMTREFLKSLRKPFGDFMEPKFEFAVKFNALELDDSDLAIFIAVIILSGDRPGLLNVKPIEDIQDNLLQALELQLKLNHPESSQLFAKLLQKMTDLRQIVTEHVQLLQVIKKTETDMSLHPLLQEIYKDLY
Briefly: FABP4 promoter luciferase analysis in preadipocytes from epididymal adipose tissues of sLZIP TG mice. In kind it is cell-based, mouse. Set-up: expressed in transfected cells; host or cells: primary preadipocytes from epididymal adipose tissue of human-sLZIP transgenic mice. Conditions: adipocytes of sLZIP TG mice vs wild type mice, with or without 10 nM RZD.
Text: as §1

B1: sLZIP: human small leucine-zipper protein, isoform of LZIP, 354 amino acids, no transmembrane domain; GenBank FJ263669, SEQ ID NO: 1 (protein, listed as Homo sapiens)
chain: MELELDAGDQDLLAFLLEESGDLGTAPDEAVRAPLDWALPLSEVPSDWEVDDLLCSLLSPPASLNILSSSNPCLVHHDHTYSLPRETVSMDLESESCRKEGTQMTPQHMEELAEQEIARLVLTDEEKSLLEKEGLILPETLPLTKTEEQILKRVRRKIRNKRSAQESRRKKKVYVGGLESRVLKYTAQNMELQNKVQLLEEQNLSLLDQLRKLQAMVIEISNKTSSSSMYSSDTRGSLPAEHGVLSRQLRALPSEDPYQLELPALQSEVPKDSTHQWLDGSDCVLQAPGNTSCLLHYMPQAPSAEPPLEWPFPDLFSEPLCRGPILPLQANLTRKGGWLPTGSPSVILQDRYSG
On to B1, for which the adipocyte differentiation entry in experiment [1] is reported as “inhibited more than in wild type mice”. The “transcriptional activity of PPARγ2 (luciferase)” value with PPARγ2 is “decreased in the adipocytes of the sLZIP TG mice more than in wild type mice”.
